Measured values: patent US20220056119A1 (Regeneron, published 2022)

T1: Activin A (human, UniProt P08476 311-426)
T1 sequence: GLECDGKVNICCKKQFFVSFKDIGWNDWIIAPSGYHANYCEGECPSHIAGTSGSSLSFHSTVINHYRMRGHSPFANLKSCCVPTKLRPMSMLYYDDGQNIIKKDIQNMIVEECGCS

T2: Activin AB (human, UniProt P08476 311-426; P09529 293-407)
T2 chain 1: T1 sequence
T2 chain 2: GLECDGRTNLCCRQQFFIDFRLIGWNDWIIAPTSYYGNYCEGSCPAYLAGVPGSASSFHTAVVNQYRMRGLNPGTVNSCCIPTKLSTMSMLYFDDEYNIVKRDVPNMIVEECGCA

T3: Activin AC (human, UniProt P55103 237-352)
T3 sequence 1: T1 sequence
T3 sequence 2: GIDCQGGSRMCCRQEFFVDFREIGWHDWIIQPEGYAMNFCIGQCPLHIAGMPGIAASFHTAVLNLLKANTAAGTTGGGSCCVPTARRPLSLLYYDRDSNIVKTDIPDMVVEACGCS

B1: H4H10452P2 (antibody, human IgG4, V domains shown)
VH: QVQLQESGPGLVKPSETLSLTCTVSGGSFSSHFWNWIRQSPGRGLEWIGYIYYSGGTNYNPSFKSRVTMSVDTSKNQFSLKLSSVTAADTAVFYCARARSGITFGGVLVPGSFDIWGQGTMVTVSS
VL: not shown
B2: H4H10426P (antibody, human IgG4, V domains shown)
VH: EVQLVESGGNLVQSGRSLRLSCTASGFAFDDFAMHWVRQVPGKGLEWVSGISWNSDTIGYADSVKGRFTISRDNAQNSLFLQMDSLRAEDTALYYCVKDMVRGLIGYYYYGMDVWGQGTTVTVSS
VL: EIVLTQSPAILSLSPGERAILSCRASQSIYTYLSWYQQTPGRAPRLLIYETSSRATGIPARFIGSGSGTDFTLTISSLEPEDFAFYYCQHRSDWPPTFGQGTKLEIK
B3: H2aM10965N (antibody, mouse IgG2a, V domains shown)
VH: RVQLVQSGSEVKKPGASVKVSCRASGYIFTSYDINWVRQATGQGLEWMGWMNPNNGNTAYTQKFQGRVTMTRNTSISTAYMELSSLRSEDTAVYYCARKGLLWFGKLLGYGMDVWGQGTTVTVSS
VL: not shown
B4: H4H10424P (antibody, human IgG4, V domains shown)
VH: QVQLVESGGGVVQPGRSLRLSCAASGFTFSSYGMHWVRQAPGKGLEWVAVIWYDGSNKYNADSVKGRFTISRDNSKNTVYLQMNSLRAEDTAVYYCARARNYDILTGYYNLGMDVWGQGTTVTVSS
VL: DIQMTQSPSSLSASVGDRVTITCRASQGIRNDLGWYQQKPGKAPKRLIYAASSLQSGVPSRFSGSGSGTEFTLTISSLQPEDFATYYCLQHNSYPYTFGQGTKLEIK
B5: H4H10445P2 (antibody, human IgG4, V domains shown)
VH: QVQLQESGPGLVKPSETLSLICSVSGGSFSSHFWSWIRQPPGKGLEWIGYVLYSGGTNYNPSLKSRVTISVDTSKNQFFLKLSSVTAADTADYYCARAISGITFGGIIVPGSFDIWGQGTMVTVSS
VL: not shown
B6: H4H10437P2 (antibody, human IgG4, V domains shown)
VH: EVQLVESGGGLVQPGRSLRLSCAASGFTFDDYAMHWVRQAPGKGLEWVSGISWNSGSIGYADSVKGRFTISRDNAKNSLYLQMNSLRAEDTALYYCAKDIMGNWDYFYGMDVWGQGTTVTVSS
VL: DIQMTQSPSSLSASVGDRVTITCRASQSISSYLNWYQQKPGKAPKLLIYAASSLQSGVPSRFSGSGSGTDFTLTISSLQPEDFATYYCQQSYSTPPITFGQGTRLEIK
B7: H4H10432P2 (antibody, human IgG4, V domains shown)
VH: EVQLVESGGGLVQPGRSLTLSCAVSGFTFDDHAMHWVRQAPGKGLEWVSGISWNSVSIGYADSVKGRFTISRDNAKTSLYLQMNSLRVDDTALYYCVQDLNDILTGYPLFDFWGQGTLVTVSS
VL: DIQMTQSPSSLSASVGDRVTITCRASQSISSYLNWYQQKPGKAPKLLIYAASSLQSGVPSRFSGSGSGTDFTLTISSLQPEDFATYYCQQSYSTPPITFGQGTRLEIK

What was measured:
Test in all cases: cell-based or functional assay
[1] = target: T1, Activin A
[2] = target: T2, Activin AB
[3] = target: T3, Activin AC

Binder | IC50, inhibition of 100 pM Activin A in A204/CAGAx12-Luc luciferase bioassay [1] | IC50, inhibition of 30 pM Activin AB in A204/CAGAx12-Luc luciferase bioassay [2] | IC50, inhibition of 4 nM Activin AC in A204/CAGAx12-Luc luciferase bioassay [3]
B1 | 5.8e-11 M |  | 
B2 | 2.3e-10 M |  | 
B3 | 3.5e-09 M |  | 
B4 | 7.6e-10 M |  | 
B5 | 5.3e-11 M |  | 
B6 | 2.9e-10 M |  | 
B7 | 1.1e-10 M | 8e-10 M | 2.8 nM
